A word on the Kd: it is the free concentration of one partner at which half of the binding sites on the other are occupied at equilibrium, for simple one-to-one binding.

The target in assay [1] is PcrV on Pseudomonas aeruginosa strain PA103 (type III secretion system) (Pseudomonas aeruginosa strain PA103). The assay is described as follows: cell-based or functional assay.
Assay [2] has as its target PcrV antigen of Pseudomonas aeruginosa (recombinant PcrV) (Pseudomonas aeruginosa). The assay is described as follows: biolayer interferometry, ForteBio Octet. (BLI is a label-free optical method that tracks binding on a fibre tip over time.)

As to Mab166 Fab, the IC50 (nM), TTSS-dependent cytotoxicity assay (PA103 killing of P3-X63-Ag8 myeloma cells, propidium iodide flow cytometry) in assay [1] is 53 nM. In addition, the Kd in assay [2] came out at 1.4 nM.

The record behind these values is patent US20100272736A1, “COMBINATION ANTIBIOTIC AND ANTIBODY THERAPY FOR THE TREATMENT OF PSEUDOMONAS AERUGINOSA INFECTION” (priority 2009, published 2010).
